Test results as given in patent US10704030B2, “P450-BM3 variants with improved activity” (Codexis, Inc., priority 2015, dated 2020).
Residue numbers refer to the chain shown, from its start. Names and notes keep the numbering of the source.

B1: Variant 16: P450-BM3 variant of SEQ ID NO: 6: K32R; C48S; Y52F; G115R; L216Y; D232H; E349K; M491A; T577A; E619D; A627S; D722S (protein)
chain: MTIKEMPQPKTFGELKNLPLLNTDKPVQALMRIADELGEIFKFEAPGSVTRFLSSQRLIKEACDESRFDKNLSQALKFARDFLGDGLFTSWTHEINWKKAHNILLPSFSQQAMKRYHAMMVDIAVQLVQKWERLNADEHIEVSEDMTRLTLDTIGLCGFNYRFNSFYRDQPHPFIISMVRALDEVMNKLQRANPDDPAYDENKRQCQEDIKVMNDYVDKIIADRKARGEQSHDLLTQMLNGKDPETGEPLDDGNISYQIITFLIAGHETTSGLLSFALYFLVKNPHVLQKVAEEAARVLVDPVPSYKQVKQLKYVGMVLNEALRLWPTAPAFSLYAKEDTVLGGEYPLKKGDEVMVLIPQLHRDKTIWGDDVEEFRPERFENPSAIPQHAFKPFGNGQRACIGQQFALHEATLVLGMMLKHFDFEDHTNYELDIKETLTLKPEGFVVKAKSKKIPLGGIPSPSTEQSAKKVRKKAENAHNTPLLVLYGSNAGTAEGTARDLADIAMSKGFAPQVATLDSHAGNLPREGAVLIVTASYNGHPPDNAKQFVDWLDQASADEVKGVRYSVFGCGDKNWAATYQKVPAFIDETLAAKGAENIADRGEADASDDFEGTYEEWRDHMWSDVASYFNLDIENSEDNKSTLSLQFVDSAADMPLAKMHGAFSTNVVASKELQQPGSARSTRHLEIELPKEASYQEGDHLGVIPRNYEGIVNRVTARFGLSASQQIRLEAEEEKLAHLPLAKTVSVEELLQYVELQDPVTRTQLRAMAAKTVCPPHKVELEALLEKQAYKEQVLAKRLTMLELLEKYPACEMKFSEFIALLPSIRPRYYSISSSPRVDEKQASITVSVVSGEAWSGYGEYKGIASNYLAELQEGDTITCFISTPQSEFTLPKDPETPLIMVGPGTGVAPFRGFVQARKQLKEQGQSLGEAHLYFGCRSPHEDYLYQEELENAQSEGIITLHTAFSRMPNQPKTYVQHVMEQDGKKLIELLDQGAHFYICGDGSQMAPAVEATLMKSYADVHQVSEADARLWLQQLEEKGRYAKDVWAG
modifications: P450_BM3
notes: C48S; Y52F; G115R; L216Y; D232H; E349K; M491A; T577A; E619D; A627S; D722S
B2: Variant 17: P450-BM3 variant of SEQ ID NO: 6: K32R; C48S; Y52F; I95P; Q111R; G115R; I176V; L216Y; D232H; E349T; M491A; T577A; E619D; D722S (protein)
chain: B1 chain with I95P, Q111R, I176V, K349T, S627A
modifications: P450_BM3
notes: C48S; Y52F; I95P; Q111R; G115R; I176V; L216Y; D232H; E349T; M491A; T577A; E619D; D722S
B3: SEQ ID NO: 6: P450-BM3 parental backbone from the commercially available MCYP panel (MCYP-0343; Codexis) (protein)
chain: MTIKEMPQPKTFGELKNLPLLNTDKPVQALMKIADELGEIFKFEAPGCVTRYLSSQRLIKEACDESRFDKNLSQALKFARDFLGDGLFTSWTHEINWKKAHNILLPSFSQQAMKGYHAMMVDIAVQLVQKWERLNADEHIEVSEDMTRLTLDTIGLCGFNYRFNSFYRDQPHPFIISMVRALDEVMNKLQRANPDDPAYDENKRQCQEDIKVMNDLVDKIIADRKARGEQSDDLLTQMLNGKDPETGEPLDDGNISYQIITFLIAGHETTSGLLSFALYFLVKNPHVLQKVAEEAARVLVDPVPSYKQVKQLKYVGMVLNEALRLWPTAPAFSLYAKEDTVLGGEYPLEKGDEVMVLIPQLHRDKTIWGDDVEEFRPERFENPSAIPQHAFKPFGNGQRACIGQQFALHEATLVLGMMLKHFDFEDHTNYELDIKETLTLKPEGFVVKAKSKKIPLGGIPSPSTEQSAKKVRKKAENAHNTPLLVLYGSNMGTAEGTARDLADIAMSKGFAPQVATLDSHAGNLPREGAVLIVTASYNGHPPDNAKQFVDWLDQASADEVKGVRYSVFGCGDKNWATTYQKVPAFIDETLAAKGAENIADRGEADASDDFEGTYEEWREHMWSDVAAYFNLDIENSEDNKSTLSLQFVDSAADMPLAKMHGAFSTNVVASKELQQPGSARSTRHLEIELPKEASYQEGDHLGVIPRNYEGIVNRVTARFGLDASQQIRLEAEEEKLAHLPLAKTVSVEELLQYVELQDPVTRTQLRAMAAKTVCPPHKVELEALLEKQAYKEQVLAKRLTMLELLEKYPACEMKFSEFIALLPSIRPRYYSISSSPRVDEKQASITVSVVSGEAWSGYGEYKGIASNYLAELQEGDTITCFISTPQSEFTLPKDPETPLIMVGPGTGVAPFRGFVQARKQLKEQGQSLGEAHLYFGCRSPHEDYLYQEELENAQSEGIITLHTAFSRMPNQPKTYVQHVMEQDGKKLIELLDQGAHFYICGDGSQMAPAVEATLMKSYADVHQVSEADARLWLQQLEEKGRYAKDVWAG
modifications: P450_BM3

Assays:
Type in all cases: biochemical
[1] = Validation of generalist properties over the four substrates screened
Experimental: For the production of lyophilized protein powders, LB agar plates supplemented with chloramphenicol (30 μg/mL) were streaked with E. coli containing a desired B. megaterium P450-BM3 variant in an IPTG-inducible vector. The plates were grown at 37° C. for 16 hrs before single clones were selected to inoculate a 15 mL Falcon™ tube (Fisher) containing TB media (3 mL) supplemented with chloramphenicol (30 μg/mL). The tube was shaken at 200 rpm, 30° C., and 85% humidity for 20-24 h to grow the cultures to saturation. Then, 2.5 mL of the overnight culture was used to inoculate sterile 1 L flasks containing TB medium (250 mL) supplemented with chloramphenicol (30 μg/mL), trace element solution (as described above), and 0.05 g/L ammonium iron (III) citrate. After being shaken at 250 rpm, 30° C., and 85% humidity to an OD600 of 0.8-1.2, P450 expression was induced by addition of IPTG (500 uM) and the heme precursor 5-aminolevulinic acid (5-ALA) to a final concentration of 500 uM. The cultures were grown for additional 20-24 hours and centrifuged in pre-weighed 250 mL centrifuge bottles for 20 minutes at 4000 rpm, 4° C. The supernatants were discarded, and the centrifuge bottles containing cell pellets were weighed. The pellets were resuspended in 50 mM potassium phosphate buffer with 2 mM DTT, pH 8.0 (5 mL of buffer per gram of cell pellet). The cells were lysed using a microfluidizer homogenizer, and the suspensions of cells and lysate were collected in sterile 50 mL centrifuge tubes. The samples were centrifuged for 30 minutes at 10,000 rpm, 4° C. The clarified lysate was collected into a plastic petri plate and frozen at −80° C. prior to lyophilization. The enzyme-containing lysates were lyophilized using standard methods known in the art.
Enzyme stocks (˜12 μM) were prepared by dissolving ˜20 mg of each enzyme in 100 mM potassium phosphate buffer, pH 8.0 (1 mL). The concentration of each enzyme stock solution was determined by the UV-visible absorption spectroscopy (after centrifugation to remove particulates) and diluted to standardize at 12 μM heme protein. Substrate solutions were prepared by dissolving each substrate in DMSO to reach a final concentration of 20 mM or 40 mM. Reaction mix (235 μL) followed by enzyme solution (50 μL) was added to the plates. The substrate stock solution was added to the enzyme solutions (15 μL at the two different concentrations). Each reaction contained 100 mM potassium phosphate, 1.0 mM NADP+, 25 mM glucose, 0.5 mg/mL glucose dehydrogenase, 5% DMSO and substrate at 1 or 2 mM. Loratadine, imatinib, and gefitinib (See, FIG. 1) were selected as substrates in addition to diclofenac to validate improved BM3 variants. The reactions were shaken at 450 rpm at 30° C. over 24 hours. All reactions were diluted with acetonitrile to a final concentration of 0.5 mM substrate. The plates were then centrifuged at 3,000 g for 1 hour at 20° C. The supernatant was diluted 1:1 with acetonitrile, filtered using a 0.4 micron filter, and analyzed by UPLC-MS.
For UPLC-MS analysis, the quenched and filtered reactions were transferred to 96-well HTP plates for analysis by UPLC on a Waters Acquity H-class system equipped with an autosampler. 1 uL of quenched sample was injected onto an Acquity UPLC HSS T3 column, 100 Å, (1.8 um; 2.1×100 mm). […] Column eluent was monitored by PDA (200-600 nm) prior to MS analysis in positive ESI mode (desolvation temperature 350° C., 3.25 kV spray voltage, cone voltage 25V). […]

[2] = Validation of generalist properties: oxidation of gefitinib by lyophilized P450-BM3 variant, UPLC-MS; settings: [Gefitinib] = 1 mM; for TON: TON = [substrate]*% conversion/[P450]; for FIOPC (A12): fold improvement over parent MCYP-1.2-A12
Procedure, shortened: (§1)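 Lyophilized lysate of E. coli-expressed P450-BM3 variant (stock standardized to 12 μM heme) was incubated 24 h at 30 °C with 1 or 2 mM substrate, 1.0 mM NADP+, 25 mM glucose, 0.5 mg/mL glucose dehydrogenase and 5% DMSO in 100 mM potassium phosphate. Acetonitrile-quenched samples were analyzed by UPLC-MS (positive ESI).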

[3] = Validation of generalist properties: oxidation of loratadine by lyophilized P450-BM3 variant, UPLC-MS; settings: [Loratadine] = 1 mM; for TON: TON = [substrate]*% conversion/[P450]; for FIOPC (A12): fold improvement over parent MCYP-1.2-A12
Procedure, shortened: as §1

[4] = Validation of generalist properties: oxidation of imatinib by lyophilized P450-BM3 variant, UPLC-MS; settings: [Imatinib] = 1 mM; for TON: TON = [substrate]*% conversion/[P450]; for FIOPC (A12): fold improvement over parent MCYP-1.2-A12
Procedure, shortened: as §1

[5] = Validation of generalist properties: oxidation of diclofenac by lyophilized P450-BM3 variant, UPLC-MS; settings: [Diclofenac] = 1 mM; for TON: TON = [substrate]*% conversion/[P450]; for FIOPC (A12): fold improvement over parent MCYP-1.2-A12
Procedure, shortened: as §1

Row | Molecule | performance (% conversion at 1 mM substrate loading) over the substrates screened, in words [1] | % Conv. [2] | TON [2] | FIOPC (A12) [2] | % Conv. [3] | TON [3] | FIOPC (A12) [3] | % Conv. [4] | TON [4] | FIOPC (A12) [4] | % Conv. [5] | TON [5] | FIOPC (A12) [5]
1 | B1 | improved and significant activity for three out of four substrates screened | ++++ (15.01-20.00) | ‡‡‡‡ (10000-50000) | **** (10.01-15.00) | + (0-5.00) | ‡ (0-1000) | * (0.0-3.0) | ++++ (15.01-20.00) | ‡‡‡‡ (10000-50000) | **** (10.01-15.00) | ++++ (15.01-20.00) | ‡‡‡‡ (10000-50000) | * (0.0-3.0)
2 | B2 | improved and significant activity for three out of four substrates screened | ++++ (15.01-20.00) | ‡‡‡‡ (10000-50000) | *** (5.01-10.0) | + (0-5.00) | ‡ (0-1000) | * (0.0-3.0) | ++++ (15.01-20.00) | ‡‡‡‡ (10000-50000) | **** (10.01-15.00) | ++++ (15.01-20.00) | ‡‡‡‡ (10000-50000) | * (0.0-3.0)
3 | B3 | low activity for each substrate screened | ++ (5.01-10.00) | ‡‡ (1001-5000) | – | + (0-5.00) | ‡ (0-1000) | – | + (0-5.00) | ‡‡ (1001-5000) | – | ++ (5.01-10.00) | ‡‡ (1001-5000) | –
